Biological target: CDK2 kinase complex (cyclin not given) (UniProt P24941)
Test: cell-based or functional assay

In order of falling % Control Activation of CDK2:
1. GST-HPV16 E7 ?9-13 (from UniProt P03129 1-8; P03129 14-98)  90%
2. GST-HPV16 E7 ?22-26 (from UniProt P03129 1-21; P03129 27-98)  85%
3. GST-HPV16 E7 ?31-37 (from UniProt P03129 1-30; P03129 38-98)  80%
4. GST-HPV16 E7 ?34-37 (from UniProt P03129 1-33; P03129 38-98)  80%
5. GST-HPV16 E7 ?13-15 (from UniProt P03129 1-12; P03129 16-98)  76%
6. GST-HPV16 E7 ?9-13, ?A34-37 (from UniProt P03129 1-8; P03129 14-33; P03129 38-98)  72%
7. GST-HPV16 E7 ?22-26, ?31-37 (from UniProt P03129 1-21; P03129 27-30; P03129 38-98)  72%

“GST-16E7(1-27) (from UniProt P03129 1-27)” was tested, and the CDK2 activation, percent of that of full length E7 (one experiment) was 28.6%.

With “GST-16E7(1-27) (from UniProt P03129 1-27)” the CDK2 activation, percent of that of full length E7 (repeat experiment) was 52%.

In order of falling % Control Activation of CDK2, Exp. 1:
1. GST-HPV16 E7 M12→L12 (from UniProt P03129 1-98)  96.7%
2. GST-HPV16 E7 ?24, 26; ?31, 32 (from UniProt P03129 1-98)  88.2%
3. GST-HPV16 E7 C24, E26→S24, D26 (from UniProt P03129 1-98)  86.7%
4. GST-HPV16 E7 ?12; ?24, 26 (from UniProt P03129 1-98)  85.2%
5. GST-HPV16 E7 C91→W91 (from UniProt P03129 1-98)  81.7%
6. GST-HPV16 E7 S31, S32→G31, G32 (from UniProt P03129 1-98)  77.1%
7. GST-HPV16 E7 ?24, 26; ?91 (from UniProt P03129 1-98)  69.4%

In order of rising % Control Activation of CDK2, Exp. 2:
1. GST-HPV16 E7 ?24, 26; ?31, 32; ?91 (from UniProt P03129 1-98)  70.6%
2. GST-HPV16 E7 C91→W91 (from UniProt P03129 1-98)  78.7%
3. GST-HPV16 E7 C24, E26→S24, D26 (from UniProt P03129 1-98)  81.3%
4. GST-HPV16 E7 ?12; ?24, 26; ?31, 32 (from UniProt P03129 1-98)  83.1%
5. GST-HPV16 E7 ?24, 26; ?91 (from UniProt P03129 1-98)  86.4%
6. GST-HPV16 E7 ?12; ?24, 26 (from UniProt P03129 1-98)  93.5%
7. GST-HPV16 E7 ?24, 26; ?31, 32 (from UniProt P03129 1-98)  95.6%

In order of falling relative kinase activity compared to activity in the presence of full length E7:
1. GST-16E7(1-69) (from UniProt P03129 1-69)  82.5%
2. GST-16E7(1-87) (from UniProt P03129 1-87)  76.7%
3. GST-16E7(1-48) (from UniProt P03129 1-48)  73.2%
4. GST-16E7(1-38) (from UniProt P03129 1-38)  72%

In order of falling induced kinase activity, percent of that by full length E7:
1. GST-16E7 (16-38) (from UniProt P08515 1-218; P03129 16-38)  53%
2. GST-E7 (20-48) (from UniProt P03129 20-48)  33%

“GST-16E7(1-15) (from UniProt P03129 1-15)” gave a relative kinase activity compared to full length E7 of 15%.

Biological target: cyclin A/CDK2 complex (UniProt P20248)
Test: cell-based or functional assay

In order of rising activation of cyclinA/CDK2, percent of full length E7:
1. GST-HPV16-E7(16-98) (from UniProt P03129 16-98)  53%
2. GST-HPV16-E7(9-98) (from UniProt P03129 9-98)  64%

Substance “GST-HPV16-E7(39-98) (from UniProt P03129 39-98)” has an activation of cyclinA/CDK2, percent of full length E7 (repeat experiment) of 18%.

“GST-HPV16-E7(39-98) (from UniProt P03129 39-98)” was tested, and the activation of cyclinA/CDK2, percent of full length GST-HPV 16 E7 was 28.6%.
